Data as given in patent US20100105567A1, “NOVEL CAPTURE AGENTS FOR BINDING A LIGAND” (priority 2005, published 2010).
No end group written: not given here. TAMRA = rhodamine dye label at the N-terminus (mixture of 5- and 6-isomers)

Test: Retention of arrayed peptides on a polypropylene sheet after successive washes
Assay type: physicochemical
Details: Control array (not washed); scan after first wash
Procedure: Further experiments were undertaken to investigate the retention of peptides P1-1 to P1-5 and P2-1 to P2-2, shown in Table 3, on a polypropylene surface.
The polypropylene sheet was wiped with 50% (v/v) aqueous acetonitrile prior to use.
8×replicate 20 nl volumes of 1 μM peptides P1-1 to P1-5 and P2-1 to P2-2 and TAMRA in dimethyl sulphoxide (DMSO) were dispensed at 1 mm spacing to a 3″×1″×1 mm polypropylene sheet using the Piezorray system (PerkinElmer LAS). 500 drops were pre-dispensed using the ‘side shoot’ option and the tuning was set to 72V for 30 μs.
The slide was imaged at 10 μm resolution on a Typhoon Trio Plus variable mode imager (Amersham Biosciences) with the green (532 nm) laser and the 580 BP 30 filter at a PMT voltage of 600 V and at normal sensitivity. The scan height was set at the platen and the samples were pressed during scanning. The fluorescence image was analysed using ImageQuant TL v2003.03 (Amersham Biosciences).
The lower half of the slide (containing the test array) was then washed in 100 ml of 1 M NaCl containing 10 mM tris-HCl (pH 8.0) for one minute and were re-scanned as described above.
The same half of the slide was then washed for a second time in 100 ml of 1 M NaCl containing 10 mM tris-HCl (pH 8.0) for 30 minutes and re-scanned as described above.
The same half of the slide was then washed for a third time in 100 ml of water for 30 minutes and re-scanned as described above.
For “TAMRA-F-G-F-G-F-G-F-G-F-G-F-S-F-A-F-D-F-G-F ({TAMRA}-FGFGFGFGFGFSFAFDFGF) [Peptide P1-5]”, the Average fluorescence was 199,347,483. For “TAMRA-F-G-F-G-F-G-F-G-F-S-F-A-F-D-F-G-F ({TAMRA}-FGFGFGFGFSFAFDFGF) [Peptide P1-4]”, the Average fluorescence was 187,287,630. In the case of “TAMRA-F-G-F-G-F-G-F-S-F-A-F-D-F-G-F ({TAMRA}-FGFGFGFSFAFDFGF) [Peptide P1-3]”, the Average fluorescence was 192,743,469.

Same assay, conditions: Control array (not washed); scan after first wash; slide background subtracted
With “TAMRA-F-G-F-G-F-G-F-G-F-G-F-S-F-A-F-D-F-G-F ({TAMRA}-FGFGFGFGFGFSFAFDFGF) [Peptide P1-5]” the Corrected signal was 52,655,810. For “TAMRA-F-G-F-G-F-G-F-G-F-S-F-A-F-D-F-G-F ({TAMRA}-FGFGFGFGFSFAFDFGF) [Peptide P1-4]”, the Corrected signal was 40,595,958. For “TAMRA-F-G-F-G-F-G-F-S-F-A-F-D-F-G-F ({TAMRA}-FGFGFGFSFAFDFGF) [Peptide P1-3]”, the Corrected signal was 46,051,796.

Same assay, conditions: Control array (not washed); scan after second wash
In the case of “TAMRA-F-G-F-G-F-G-F-G-F-G-F-S-F-A-F-D-F-G-F ({TAMRA}-FGFGFGFGFGFSFAFDFGF) [Peptide P1-5]”, the Average fluorescence was 190,847,825. For “TAMRA-F-G-F-G-F-G-F-G-F-S-F-A-F-D-F-G-F ({TAMRA}-FGFGFGFGFSFAFDFGF) [Peptide P1-4]”, the Average fluorescence was 179,942,418. In the case of “TAMRA-F-G-F-G-F-G-F-S-F-A-F-D-F-G-F ({TAMRA}-FGFGFGFSFAFDFGF) [Peptide P1-3]”, the Average fluorescence was 187,310,655.

Same assay, conditions: Control array (not washed); scan after second wash; slide background subtracted
With “TAMRA-F-G-F-G-F-G-F-G-F-G-F-S-F-A-F-D-F-G-F ({TAMRA}-FGFGFGFGFGFSFAFDFGF) [Peptide P1-5]” the Corrected signal was 53,567,975. For “TAMRA-F-G-F-G-F-G-F-G-F-S-F-A-F-D-F-G-F ({TAMRA}-FGFGFGFGFSFAFDFGF) [Peptide P1-4]”, the Corrected signal was 42,662,569. In the case of “TAMRA-F-G-F-G-F-G-F-S-F-A-F-D-F-G-F ({TAMRA}-FGFGFGFSFAFDFGF) [Peptide P1-3]”, the Corrected signal was 50,030,806.

Same assay, conditions: Control array (not washed); scan after third wash
For “TAMRA-F-G-F-G-F-G-F-G-F-G-F-S-F-A-F-D-F-G-F ({TAMRA}-FGFGFGFGFGFSFAFDFGF) [Peptide P1-5]”, the Average fluorescence was 183,492,293. In the case of “TAMRA-F-G-F-G-F-G-F-G-F-S-F-A-F-D-F-G-F ({TAMRA}-FGFGFGFGFSFAFDFGF) [Peptide P1-4]”, the Average fluorescence was 176,102,487. In the case of “TAMRA-F-G-F-G-F-G-F-S-F-A-F-D-F-G-F ({TAMRA}-FGFGFGFSFAFDFGF) [Peptide P1-3]”, the Average fluorescence was 184,219,147.

Same assay, conditions: Control array (not washed); scan after third wash; slide background subtracted
With “TAMRA-F-G-F-G-F-G-F-G-F-G-F-S-F-A-F-D-F-G-F ({TAMRA}-FGFGFGFGFGFSFAFDFGF) [Peptide P1-5]” the Corrected signal was 49,585,053. For “TAMRA-F-G-F-G-F-G-F-G-F-S-F-A-F-D-F-G-F ({TAMRA}-FGFGFGFGFSFAFDFGF) [Peptide P1-4]”, the Corrected signal was 42,195,247. For “TAMRA-F-G-F-G-F-G-F-S-F-A-F-D-F-G-F ({TAMRA}-FGFGFGFSFAFDFGF) [Peptide P1-3]”, the Corrected signal was 50,311,907.

Same assay, conditions: Test array; after first wash (1 M NaCl, 10 mM tris-HCl pH 8.0, one minute)
For “TAMRA-F-G-F-G-F-G-F-G-F-G-F-S-F-A-F-D-F-G-F ({TAMRA}-FGFGFGFGFGFSFAFDFGF) [Peptide P1-5]”, the Average fluorescence was 201,991,732. For “TAMRA-F-G-F-G-F-G-F-G-F-S-F-A-F-D-F-G-F ({TAMRA}-FGFGFGFGFSFAFDFGF) [Peptide P1-4]”, the Average fluorescence was 189,823,310. In the case of “TAMRA-F-G-F-G-F-G-F-S-F-A-F-D-F-G-F ({TAMRA}-FGFGFGFSFAFDFGF) [Peptide P1-3]”, the Average fluorescence was 171,197,973.

Same assay, conditions: Test array; after first wash; slide background subtracted
For “TAMRA-F-G-F-G-F-G-F-G-F-G-F-S-F-A-F-D-F-G-F ({TAMRA}-FGFGFGFGFGFSFAFDFGF) [Peptide P1-5]”, the Corrected signal was 47,493,774. With “TAMRA-F-G-F-G-F-G-F-G-F-S-F-A-F-D-F-G-F ({TAMRA}-FGFGFGFGFSFAFDFGF) [Peptide P1-4]” the Corrected signal was 35,325,352. For “TAMRA-F-G-F-G-F-G-F-S-F-A-F-D-F-G-F ({TAMRA}-FGFGFGFSFAFDFGF) [Peptide P1-3]”, the Corrected signal was 16,700,014.

Same assay, conditions: Test array; after second wash (1 M NaCl, 10 mM tris-HCl pH 8.0, 30 minutes)
In the case of “TAMRA-F-G-F-G-F-G-F-G-F-G-F-S-F-A-F-D-F-G-F ({TAMRA}-FGFGFGFGFGFSFAFDFGF) [Peptide P1-5]”, the Average fluorescence was 167,865,473. In the case of “TAMRA-F-G-F-G-F-G-F-G-F-S-F-A-F-D-F-G-F ({TAMRA}-FGFGFGFGFSFAFDFGF) [Peptide P1-4]”, the Average fluorescence was 159,100,527. With “TAMRA-F-G-F-G-F-G-F-S-F-A-F-D-F-G-F ({TAMRA}-FGFGFGFSFAFDFGF) [Peptide P1-3]” the Average fluorescence was 148,725,456.

Same assay, conditions: Test array; after second wash; slide background subtracted
With “TAMRA-F-G-F-G-F-G-F-G-F-G-F-S-F-A-F-D-F-G-F ({TAMRA}-FGFGFGFGFGFSFAFDFGF) [Peptide P1-5]” the Corrected signal was 35,418,169. For “TAMRA-F-G-F-G-F-G-F-G-F-S-F-A-F-D-F-G-F ({TAMRA}-FGFGFGFGFSFAFDFGF) [Peptide P1-4]”, the Corrected signal was 26,653,223. In the case of “TAMRA-F-G-F-G-F-G-F-S-F-A-F-D-F-G-F ({TAMRA}-FGFGFGFSFAFDFGF) [Peptide P1-3]”, the Corrected signal was 16,278,152.

Same assay, conditions: Test array; after third wash (water, 30 minutes)
In the case of “TAMRA-F-G-F-G-F-G-F-G-F-G-F-S-F-A-F-D-F-G-F ({TAMRA}-FGFGFGFGFGFSFAFDFGF) [Peptide P1-5]”, the Average fluorescence was 147,812,043. For “TAMRA-F-G-F-G-F-G-F-G-F-S-F-A-F-D-F-G-F ({TAMRA}-FGFGFGFGFSFAFDFGF) [Peptide P1-4]”, the Average fluorescence was 135,681,173. In the case of “TAMRA-F-G-F-G-F-G-F-S-F-A-F-D-F-G-F ({TAMRA}-FGFGFGFSFAFDFGF) [Peptide P1-3]”, the Average fluorescence was 125,717,642.

Same assay, conditions: Test array; after third wash; slide background subtracted
For “TAMRA-F-G-F-G-F-G-F-G-F-G-F-S-F-A-F-D-F-G-F ({TAMRA}-FGFGFGFGFGFSFAFDFGF) [Peptide P1-5]”, the Corrected signal was 23,514,817. With “TAMRA-F-G-F-G-F-G-F-G-F-S-F-A-F-D-F-G-F ({TAMRA}-FGFGFGFGFSFAFDFGF) [Peptide P1-4]” the Corrected signal was 11,383,947. For “TAMRA-F-G-F-G-F-G-F-S-F-A-F-D-F-G-F ({TAMRA}-FGFGFGFSFAFDFGF) [Peptide P1-3]”, the Corrected signal was 1,420,417.

Same assay, conditions: compared among P1-1 to P1-5; chain length of 19 amino acids
With “TAMRA-F-G-F-G-F-G-F-G-F-G-F-S-F-A-F-D-F-G-F ({TAMRA}-FGFGFGFGFGFSFAFDFGF) [Peptide P1-5]” the “retention on polypropylene sheet (in words)” value was “highest retention”.
